Data published in the nanobody polyreactivity screen of Harvey et al. (2022).

test: yeast display, Sf9 membrane polyspecificity reagent, FACS + sequencing; frameworks hold sequencing errors
Procedure, shortened: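 Polyreactivity labels are assigned by the sorting gate from which each nanobody was recovered. The gates were low and high (top ~1%), set on anti-HA fluorescence for expression and streptavidin fluorescence for reagent binding. Before sorting, galactose-induced (36–48 hours) yeast display cells were stained for 1 hour at 4 °C with 10% biotinylated, detergent-solubilized Sf9 membrane reagent.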

Sequence	polyreactivity (PSR sort gate)
QVQLVESGGGLVQAGGSLRLSCAASGSIYYWYASGWYIHAPGKERELVAAITSGGSTNYADSVKGRFTISRDNAKNTVYLQMNSLKPEDTAVYYCAASSVLTNHDYWGQGTQVTVSS	low polyreactivity
QVQLVESGGGLVQAGGSLRLSCAASGSLFGRYAMGWYRQAPGTEREFVAAISRGATNTYYADSVKGRFTISRDNAKNTVYLQMNSLKPEDTAVYYCARTQRYDYGYDYWGQGTQVTVSS	low polyreactivity
QVQLVESGGGLVQAGGSLRLSCAASGSLFRINAMGWYRQAPGKERELVAAITGRVGSTYYADTVKGRFTISRDNAQNTVYLQMNSLKPEDTAVYYCAARAGSSRYTREYRYDYWGQGTQVTVSS	high polyreactivity
QVQLVESGGGLVQAGGSLRLSCAASGSLFTSYAMGWYRQAPGKERELVAAIRESGGRTYYADSVKGRFTISRDNAKNTVYLQMNSLKPEDTAVYYCAADSRVGFGRLYGYWGQGTQVTVSS	high polyreactivity
QVQLVESGGGLVQAGGSLRLSCAASGSLFYSNTMGWYRQAPGKERELVAAISRGGSTYYADSVKGRFTISRDNAKNTVYLQMNSLKPEDTAVYYCAARYRWAPAYDYWGQGTQVTVSS	high polyreactivity
QVQLVESGGGLVQAGGSLRLSCAASGSLIGQNAMGWYRQAPGKERELVATISRSGARTYYADSVKGRFTISRDIAKNTVYLQMNSLKPEDTAVYYCAARLLSVGVPMYSWGQGTQVTVSS	high polyreactivity
QVQLVESGGGLVQAGGSLRLSCAASGSMFGYYAMGWYRQATGKERELVASIRRGSSTNYADSVKGRFTISRDNAKNTVYLQMNSLKPEDTAVYYCNAVLLSYDARGYSNLYDYWGQGPQVTVSS	low polyreactivity
QVQLVESGGGLVQAGGSLRLSCAASGSMFSTYAMGWYRQAPGKERELVAASSRSGGSTYYADSVKGRFTISRDNAKNTVYLQMNSLKPEDTADYYCAKVARRQRYDYWGQGTQVTVSS	high polyreactivity
QVQLVESGGGLVQAGGSLRLSCAASGSNFANYAMGWYIQAHGKERELVAAISWSGSSTYYADSVKGRFTISRYNAKNTVYLQMNSLKPEDTAVYYCAADYATPTWEYYYWGQGTQVTVSS	low polyreactivity
QVQLVESGGGLVQAGGSLRLSCAASGSNFDPIVMGGYRKAPGKERELVAAIDVSGGSTYYADSVKGRFTISRDNAKNTVYLQMNSLKPEDTAVYYCAADAEGSASKYDYWGQGTQVTVSS	low polyreactivity
QVQLVESGGGLVQAGGSLRLSCAASGSNFETNSMGGYRQAPGQERELVAVIWRGASTYYADSVKARFTISRDNAKNTVNLQMNSLKPDDTAVYYCNARPAYAGRYAYTRYYWGQGTQVTVSS	low polyreactivity
QVQLVESGGGLVQAGGSLRLSCAASGSNFFLYAMGWYRQAPGKEREFVAAITGTADSTYYADSVKGRFTISRDDAKNTVYLQMNSLKPEDTAVYYCATDYWSSVKLDDYWGQGTQVTVSS	low polyreactivity
QVQLVESGGGLVQAGGSLRLSCAASGSNFGEYAMGWYRQAPGKERELVAAITSGGNTYYADSVKGRFTISRDNAKNTVYLQMNSLKPEDTAVYYCAATRTRYWGGDYWGQGTQVTVSS	low polyreactivity
QVQLVESGGGLVQAGGSLRLSCAASGSNFGYYAMAWYRQAPGKERELVAVITWNTGNTYYADSVKGRFTISRDNAKNTVYLQMNRLKPEDTAVYYCAADQTGWGDTYDYWGQGTEVTVSS	low polyreactivity
QVQLVESGGGLVQAGGSLRLSCAASGSNFHPYAMGWYRPAPGKEREFVAAITFRGSTYYADSVKGRFTISRDNAKNTVYLQLNSLKPEDTAVYYCAARYNIFRRGSRNYDYWGQGTEVTVSS	high polyreactivity
QVQLVESGGGLVQAGGSLRLSCAASGSNFINNAMGWYRQAPGKERELVAAISYSGGRTYYADSVKGRFTISRDNAKNTVYLQMNSLKPEDTAVYYCAADRSHRMNWGQGTQVTVSS	high polyreactivity
QVQLVESGGGLVQAGGSLRLSCAASGSNFKRYTMGLYRQAPGKEWELVAAISTSSGSTYYADSVKGRFTISRDNANNSVYLQMNSLKPEDTAVYYCAAVRHRQTYPKYNYWGQGTQVTVSS	high polyreactivity
QVQLVESGGGLVQAGGSLRLSCAASGSNFLDNAMGWYRQAPGKERELVAAITSSGGSTYYADSVKGRFTISRDNAKNTVYLQMNSLKPEDTAVYYCAADEWIVHEGYYSSYYYWGQGTQVTVSS	low polyreactivity
QVQLVESGGGLVQAGGSLRLSCAASGSNFLRNAMGWYRQAPGKERELVAAIRWNAGSTYYADSVKGRFTISRDNAKNTVYLQMNSLKPEDTAVYFCAADGYYGRGYWIRTLKFDYWGQGTQVTVSS	high polyreactivity
QVQLVESGGGLVQAGGSLRLSCAASGSNFLYSAMGWYRQAPGKERELVAVISWSGVSTYYADSVKGRFTISRDNAKNTVYLQMNSLKPEDTAVYYCNTGNHYIRTYGYWGQGTQVTVSS	low polyreactivity
QVQLVESGGGLVQAGGSLRLSCAASGSNFPYYALGWYRQAPGNERELVATITYRGGSTNYADSVKGRFTISRDNAKNTVYLQMNSLKPEDTAVYYCADYGYVLASPYPYSFVKLGYWGQGTQVTVSS	low polyreactivity
QVQLVESGGGLVQAGGSLRLSCAASGSNFSSNAMGWYRQAPGKERELFAAITWSGGSTYYADSVKGRFTISRDNAKKTVYFEMNSLKPEDTAGFYCNARRNVRQTFGYEYWGQGTQVTVSS	high polyreactivity
QVQLVESGGGLVQAGGSLRLSCAASGSNFSYYAMGWYRQAPGKERELVAAITWRSGRTYYADSVKGRFTISRDNAKNTVYLQMNSLKPEDTAVYYCAAYWWRVKYHGYYYWGQGTQVTVSS	high polyreactivity
QVQLVESGGGLVQAGGSLRLSCAASGSNFTFNALGWYRQAPGKERELVAAISKSGDRTYADSVKGRFTISRDNAKNTVYLQMNSLKPDDTAVYYCAADFSVSRYDYWGQGTQVTVSS	low polyreactivity
QVQLVESGGGLVQAGGSLRLSCAASGSNFTLYAMGWYRPAPGKERELVAAISRRGDRTYYADSVKGRFTISRDNAKNTVYLQMNSLKPADTAVYSCNARRAPPLPYYYWGQGTQVTVSS	high polyreactivity
QVQLVESGGGLVQAGGSLRLSCAASGSNFTSYAMGWYRQAPGKERELVAAITRGGRTYYADSVKGRFTISRDNAKNTVYLQMNSLKPEDTAVFYCNAPGYRGYEYWGQGTQVTVSS	high polyreactivity
QVQLVESGGGLVQAGGSLRLSCAASGSNFTTYSMGWYRQATGKERELVAASTSGSSTNYADSVKGRFTISRDNAKNTVYLQMNSLKPEDTAVYYCAVDREWPCYYYAMSKMYYWGQGTQVTVSS	low polyreactivity
QVQLVESGGGLVQAGGSLRLSCAASGSNFVGYAMGWYRQAPGKERELVAGITASGTNTYYADSVKGRFTISRDNAKNTVYLQMNSLKPEDTAVYYCAAESNRRFEGEYWGQGTQVTVSS	high polyreactivity
QVQLVESGGGLVQAGGSLRLSCAASGSNFVLYAMGWYRQAPGKESELVAAISSSGGSTYADSVKGRFTISRDNAKNTVYLQMNSLKPEDTAVYYCARDVYLSDPPRDYDYWGQGTQVTVSS	low polyreactivity
QVQLVESGGGLVQAGGSLRLSCAASGSNFVRNVMGWYRQAPGKERELVAGISWNGGSTFYADSVKGRFTISRDNAKNTVYLQMNCLKPEDTAVYYCATPYGRHGWFYLYDYWGQGTLVTVSS	low polyreactivity
